B1: CPEB3 Ribozyme (parent)
chain: UAACAGGGGGCCACAGCAGAAGCGUUCACGUCGCAGCCCCUGUCAGAUUCUGGUGAAUCUGCGAAUUCUGCUGUAUAUCUC

Variants of: B1
Test: self-cleavage, relative activity (ratio to wild type); higher = more cleavage; in vitro, sequencing
Summary of the method: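 Barcoded CPEB3 ribozyme mutants, produced by rounds of error-prone PCR, self-cleaved while being transcribed with T7 RNA polymerase for 5 hours at 37°C and during a subsequent 15 min DNase I step before EDTA was added. Sequencing of template-switched cDNA on Illumina gave cleaved and total reads, and DNA sequencing assigned barcodes to variants. Each variant's relative activity is its cleaved/total read fraction divided by the unmutated ribozyme's fraction, averaged across three batches. A variant needed a minimum of 5 reads.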

First: U58G G63A
Second: A57U A77G
The self-cleavage of the first is lower: 0.45 for the first, 0.76 for the second.

First: A57U A77U
Second: A57C A65G
The self-cleavage of the first is higher: 1.01 for the first, 0.17 for the second.

Compared with A57C C62U, A57G U67A is higher in self-cleavage: 0.14 for the first, 0.45 for the second.

Compared with A57G U67G, A57G U67C is lower in self-cleavage: 0.38 for the first, 0.35 for the second.

Going from A56U U72A to A56U U72C, the self-cleavage rises from 0.46 to 0.81.

First: A56U U72G
Second: U58C A64G
The self-cleavage of the first is higher: 0.5 for the first, 0.36 for the second.

Going from U58C A64U to U58G U69C, the self-cleavage falls from 0.33 to 0.2.

Going from A56G U60G to A56G U60C, the self-cleavage rises from 0.34 to 0.42.

First: A56G U60A
Second: A56U A77C
The self-cleavage of the first is lower: 0.41 for the first, 0.62 for the second.

First: A56U A77G
Second: A56U A77U
The self-cleavage of the first is lower: 0.71 for the first, 0.73 for the second.

First: A56U A57G
Second: A56U A57U
The self-cleavage of the first is lower: 0.47 for the first, 0.59 for the second.

First: A57U U69G
Second: A57U U69C
The self-cleavage of the first is higher: 0.44 for the first, 0.3 for the second.

First: A57U U69A
Second: U58C U66G
The self-cleavage of the first is higher: 0.4 for the first, 0.23 for the second.

Going from U58C U66C to A56G U74C, the self-cleavage rises from 0.28 to 1.12.

Compared with A56G U74A, U58A U69A is lower in self-cleavage: 1.11 for the first, 0.23 for the second.

U58A U69C and U58G U72C are the same in self-cleavage: 0.28 for the first, 0.28 for the second.

Compared with U58G U72A, U58G U72G is higher in self-cleavage: 0.24 for the first, 0.44 for the second.

Going from A57G C79U to A57G C79A, the self-cleavage falls from 1.1 to 0.73.

First: A57U C59U
Second: U58G G70A
The self-cleavage of the first is higher: 0.21 for the first, 0.19 for the second.

Compared with A56U U58C, A56U U58G is lower in self-cleavage: 0.3 for the first, 0.18 for the second.

Going from A56U U58A to A57G U80C, the self-cleavage rises from 0.31 to 1.

First: A57G U80G
Second: A57G U80A
The self-cleavage of the first is higher: 1.12 for the first, 1.06 for the second.

Going from U58A G63A to A56U A64C, the self-cleavage falls from 0.59 to 0.19.

Going from A56U A64U to A56U A64G, the self-cleavage rises from 0.28 to 0.51.

First: U58G U78C
Second: U58G U78A
The self-cleavage of the first is lower: 0.34 for the first, 0.4 for the second.

Going from A56U U78C to A56U U78G, the self-cleavage falls from 0.61 to 0.58.

Compared with A56U U78A, A56U G61A is lower in self-cleavage: 0.95 for the first, 0.29 for the second.

Compared with U58A A77G, U58A A77C is lower in self-cleavage: 0.38 for the first, 0.33 for the second.

Compared with U58A A77U, A57U U67A is lower in self-cleavage: 0.43 for the first, 0.38 for the second.

Going from A57U U67C to U58G U60C, the self-cleavage rises from 0.22 to 0.3.

Going from U58G U60A to A57G U72G, the self-cleavage rises from 0.18 to 1.01.

Going from A57G U72C to A57G U72A, the self-cleavage falls from 1.05 to 0.62.

First: U58G U74A
Second: A56G U76A
The self-cleavage of the first is lower: 0.31 for the first, 1.07 for the second.

Going from A56G U76C to A57G A77U, the self-cleavage rises from 0.85 to 0.9.

First: A57G A77G
Second: A56G A64C
The self-cleavage of the first is higher: 0.87 for the first, 0.46 for the second.

Going from A56G A64G to A56G A64U, the self-cleavage falls from 0.8 to 0.3.

First: U58C U67A
Second: U58C U67C
The self-cleavage of the first is lower: 0.28 for the first, 0.29 for the second.

Compared with A57C G61C, A56U C81A is higher in self-cleavage: 0.16 for the first, 1.2 for the second.

Compared with A57C A75U, A57U G70A is lower in self-cleavage: 0.58 for the first, 0.38 for the second.

Going from A57U G70U to A57G C68G, the self-cleavage rises from 0.19 to 0.4.

Going from A57G C68U to U58A U80A, the self-cleavage falls from 0.77 to 0.5.

Going from U58A U80C to U58C C71A, the self-cleavage falls from 0.46 to 0.37.

Going from U58C C71U to A57U U74C, the self-cleavage rises from 0.41 to 1.03.

Compared with A57U U74A, A57C U67C is lower in self-cleavage: 1.23 for the first, 0.27 for the second.

Compared with U58G A64U, A57G U58G is higher in self-cleavage: 0.17 for the first, 0.22 for the second.

Going from A57G U58A to A57G U58C, the self-cleavage rises from 0.28 to 0.33.

Compared with A57U A64U, A57U A64G is higher in self-cleavage: 0.21 for the first, 0.75 for the second.

Going from A57C U80C to A56G A77U, the self-cleavage rises from 0.67 to 0.99.

Going from A56G A77C to A56G A77G, the self-cleavage falls from 0.79 to 0.77.

First: A57C U78A
Second: A57C U78C
The self-cleavage of the first is lower: 0.4 for the first, 0.66 for the second.

Going from A56U C62U to U58C A65G, the self-cleavage rises from 0.21 to 0.27.

Going from U58C A65C to U58C A65U, the self-cleavage rises from 0.14 to 0.21.

Compared with A56U A75U, A56U A75G is lower in self-cleavage: 0.79 for the first, 0.54 for the second.

Compared with A56G C68A, A56G C68U is higher in self-cleavage: 0.32 for the first, 0.77 for the second.

Compared with U58C G73A, U58A C59A is lower in self-cleavage: 1.24 for the first, 0.25 for the second.

First: U58C C81U
Second: U58C C81G
The self-cleavage of the first is lower: 0.68 for the first, 0.82 for the second.

First: U58C C81A
Second: A56G U80G
The self-cleavage of the first is lower: 0.75 for the first, 0.99 for the second.

Going from A56G U80A to A56G U80C, the self-cleavage falls from 0.92 to 0.84.

Going from A56U U74C to A56U U74A, the self-cleavage rises from 1.06 to 1.17.

First: A57G U66A
Second: A57G U66C
The self-cleavage of the first is lower: 0.37 for the first, 0.4 for the second.

Compared with A57G U66G, A56U C71U is lower in self-cleavage: 0.53 for the first, 0.46 for the second.

A56U C71A and A56U C71G are the same in self-cleavage: 0.26 for the first, 0.26 for the second.

Compared with A56G G70C, A56G G70A is higher in self-cleavage: 0.21 for the first, 0.49 for the second.

Going from A56G G70U to A57G G70A, the self-cleavage rises from 0.25 to 0.49.

First: A57G G70C
Second: U58C G61U
The self-cleavage of the first is higher: 0.22 for the first, 0.21 for the second.

Compared with A56U U67A, A56U U67C is lower in self-cleavage: 0.43 for the first, 0.26 for the second.

Going from A56U U67G to U58C A75G, the self-cleavage rises from 0.16 to 0.46.

Going from U58C A75U to U58A U67C, the self-cleavage falls from 0.7 to 0.31.

Compared with U58A U67A, A56G A57G is higher in self-cleavage: 0.32 for the first, 0.42 for the second.

Compared with A56G A57U, A57U C62U is lower in self-cleavage: 0.37 for the first, 0.21 for the second.

Compared with A57G C59G, A57G C59A is lower in self-cleavage: 0.21 for the first, 0.2 for the second.

First: A57G C59U
Second: A56G U67C
The self-cleavage of the first is higher: 0.83 for the first, 0.3 for the second.

Going from A56G U67A to A57U U80C, the self-cleavage rises from 0.46 to 0.92.

First: A57U U80A
Second: U58A G70C
The self-cleavage of the first is higher: 0.55 for the first, 0.14 for the second.

Compared with U58A C68U, U58G U80C is higher in self-cleavage: 0.23 for the first, 0.27 for the second.

Going from A57G C71U to U58C U76C, the self-cleavage rises from 0.32 to 0.67.

Going from U58C U76A to U58C U76G, the self-cleavage rises from 0.68 to 0.69.

First: U58C C62G
Second: U58C C62U
The self-cleavage of the first is higher: 0.27 for the first, 0.22 for the second.

Compared with U58C C62A, A57C U58C is lower in self-cleavage: 0.36 for the first, 0.3 for the second.

Going from A57G G63A to A56G G63A, the self-cleavage rises from 0.84 to 0.97.

Compared with A56G G63U, A57C U66A is lower in self-cleavage: 1.03 for the first, 0.2 for the second.

Going from A57C U66C to U58C U72A, the self-cleavage rises from 0.16 to 0.39.

First: U58C U72C
Second: U58C U72G
The self-cleavage of the first is higher: 0.59 for the first, 0.55 for the second.

A57U U78G gave a self-cleavage of 0.75.
